Test results taken from the supplement of paper PMC9170038.

System: MS2 coat protein
Assay: apparent KD of MS2 coat protein; designed switch direction (-1 OFF switch, 1 ON switch): -1; higher = weaker reporter binding
In short: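 On Illumina chips, designed RNA switches with common flanks were made by stalled E. coli RNA polymerase. Titrations with SNAP-549-labelled MS2 coat protein, doubling from 0.7 or 1.5 nM to 3 µM, were done with no input, with 200 uM small-molecule ligand, or with an oligonucleotide input. Apparent KD is the median per design over clusters, from curve fits of normalised cluster fluorescence.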

[1] = Eterna round: R95, input ligand: microRNA oligo, concentration not stated
[2] = input ligand: microRNA oligo, concentration not stated
[3] = Eterna round: R95, input ligand: FMN 200 uM
[4] = Eterna round: R95, input ligand: none

Sequence | apparent KD of MS2 coat protein (input ligand: FMN 200 uM) [nM] | apparent KD of MS2 coat protein (input ligand: none) [nM] | apparent KD of MS2 coat protein [1] [nM] | apparent KD of MS2 coat protein [2] [nM] | apparent KD of MS2 coat protein [3] [nM] | apparent KD of MS2 coat protein [4] [nM]
UAUGAGCUAGGAUAUGCUUUGGGCUCGCUUUCCUUCGAUAAACUUGAGGAUCACCCAAGUAGAAGGAGCUUGUA [Mod 32 - Jieux - Exclusion 2] (Eterna round: R97, puzzle: Exclusion 2) | 36.5 | 15.8 |  |  |  | 
GAUCAACAUGAGGAUCACCCAUGUGAGGAUAUGUAUCAUAGAUCUUCGGAUCUAUGAUACAGAAGGCAUGUGGA [Ex1-3: 100c] (puzzle: Exclusion 1) |  |  | 144 |  |  | 
UAUGAUGCAGGAUAUACAUGAGGAUCACCCAUGUCUCCAAGGGAUAAAGCCAGGCGCUGUAGAAGGGCGACGAC [Eternabot (L1) Solution 28] (Eterna round: R97, puzzle: Exclusion 3) | 26.9 | 27.4 |  |  |  | 
CCUCAUGGGCAGGAUAUCAGUCGAAAGUUUAUAUGAGAAGGGCCAACAUGAGGAUCACCCAUGUAAUCCCUGAC [EX6 C.14] (Eterna round: R97, puzzle: Exclusion 6) | 66.7 | 27.8 |  |  |  | 
UUGUUAUAUGUAGGAUAUGCAUAUUAUUAUUAUGCAGAAGGACAUGAGGAUCACCCAUGUGUAUUGUUAUUAUAUAUUAUAUAU [Title] (Eterna round: R96, puzzle: Exclusion NG 1) |  |  |  | 16.5 |  | 
UUGUACAUAGGAUAUAGUUGUUUGUACAUGAGGAUCACCCAUGUUAUGUAUGUUUUGUUUCUAGAAGGAUGUUGAU [JR_E5_Sub003] (puzzle: Exclusion 5) |  |  | 47.1 |  |  | 
UUAAAUCAUGUAGGAUAUGCGUGGCGAAGCUAUGCAGAAGGACAUGAGGAUCACCCAUGUUCUUCGGUCUGCGUACAGAUCGAA [JL ENG1 1.07] (Eterna round: R96, puzzle: Exclusion NG 1) | 316 | 26.8 |  | 20.6 |  | 
AAACCUCACAACCGUUAAAACAUGAGGAUCACCCAUGUGCCGUAACGGCGCAUGGUCGAGCUAGGCUCGUCCAUGCA [Zamacelaso] (Eterna round: R96, puzzle: Sensor v2, turn-off variant) | 12 | 15.4 |  | 10.2 |  | 
GUCCGGCAUGUAGGAUAUGGAUCCGAUUAGGAUCCAGAAGGACAUGAGGAUCACCCAUGUACAUGUAAACAGUCAUCACCGGAC [Fiskers ExNg1 - 13] (Eterna round: R96, puzzle: Exclusion NG 1) | 44.6 | 18.7 |  | 14.1 |  | 
CCGAAUAUGCAGGAUAUCGUAUCGGAGACGAUACGAGAAGGGCAAACAUGAGGAUCACCCAUGUUCCUUAACGG [Mat - Exclusion 6 - Eli Mod - D75] (puzzle: Exclusion 6) |  |  | 15.9 |  |  | 
CCGGAAUUGGAGGAUAUAGGAGUCGAUAGACACCUAGAAGGUCAGACAUGAGGAUCACCCAUGUGUCCUACCGG [Fiskers Ex 6 - 87] (puzzle: Exclusion 6) |  |  | 18.3 |  | 19.9 | 17.8
AUUGAUGUUGAGGAUAUGCUUUUAUUUAUUCUUGCAGAAGGCGAUACAUGAGGAUCACCCAUGUUCAUGGAAGU [JR_E6_Sub091] (puzzle: Exclusion 6) |  |  | 30.7 |  |  | 
AAUUUACAUGAGGAUCACCCAUGUGAGGAUAUGGAUUCGCUGGCCGUAGCCAGUGGAUCCAGAAGGCGCGUGAU [JL-ex1-4.28] (Eterna round: R97, puzzle: Exclusion 1) | 182 | 98.2 |  |  |  | 
AUGUGAUUGGCUCUGAGACAUGAGGAUCACCCAUGUGGAGCGCAGGAUAUCCGAACCGUGAAGGCGGAGAAGGGCGUCGUGGUA [Zasorequer] (Eterna round: R96, puzzle: Exclusion NG 3) | 39.6 | 26 |  | 20.5 |  | 
GCCUUAUCGGUCAGGAUAUACACCCGUCACUUGUUGUAGAAGGGACAUGAGGAUCACCCAUGUACAUUACAUUG [alecazam37] (Eterna round: R97, puzzle: Brourd's mod of Exclusion 4) | 31.3 | 26 |  |  |  | 
UCCGAACAUGAGGAUCACCCAUGUGAGGAUAUCCCGAGAUUAAAUGCCGCAAGAAGGCGGAGAAGGCGCAUGGG [Biditiinen] (puzzle: Exclusion 1) |  |  | 17.3 |  | 20.6 | 19.5
CCUUAGUAAGGAUAUCAGCUUAUAGAGUUGGUAAUGAGAGCUGAGAAGGUACAUGAGGAUCACCCAUGUUAGUU [JL Zatite mod 4] (puzzle: Exclusion 4) |  |  | 20.3 |  |  | 
UCUUCACAUGAGGAUCACCCAUGUCAGGAUAUAAGGUCUUGUCUACGUUGAAGGGACUUUAGAAGGGACACUUG [EX1 B.6] (Eterna round: R97, puzzle: Exclusion 1) | 107 | 36 |  |  |  | 

Sequence | apparent KD of MS2 coat protein (input ligand: FMN 200 uM) [nM] | apparent KD of MS2 coat protein (input ligand: none) [nM] | apparent KD of MS2 coat protein [1] [nM] | apparent KD of MS2 coat protein [2] [nM] | apparent KD of MS2 coat protein [3] [nM] | apparent KD of MS2 coat protein [4] [nM]
GAGUGACAUGAGGAUCACCCAUGUGAGGAUAUCGGACGGACCUAGUUAACUUCCGCCGCGAGAAGGCACAUCGG [Exclusion 1 V23] (Eterna round: R96, puzzle: Exclusion 1) | 75.2 | 84 |  | 45.6 |  | 
UUUUACUCAGGAUAUACAUGAGGAUCACCCAUGUAUAUUGAAGAUAAUACAUGGGAAUGUAGAAGGGAGCUCAU [Omei Ex3 Pseudoloop 18] (Eterna round: R97, puzzle: Exclusion 3) | 190 | 179 |  |  |  | 
AGCGCAUGAGGAUAUACAUGAGGAUCACCCAUGUUCCAGUGAGCACUAGUGAGAGUCAGUAGAAGGUAUAGGGC [Cecete] (Eterna round: R97, puzzle: Exclusion 3) | 151 | 172 |  |  |  | 
AAAUCGUGAGGAUAUCCAAUAUAUGACAUGAGGAUCACCCAUGUUUCCACUCGUACCUCCGGAGAAGGCACAGUUA [Ex5 #73] (Eterna round: R97, puzzle: Exclusion 5) | 24.7 | 26.3 |  |  |  | 
GAUUAUGCGAGCUUUAGGGACAUGAGGAUCACCCAUGUUCGUCUUAUUAGUCUGGGUACGCUAACAUACCUAAAUCU [JMF 43] (puzzle: Sensor v3, turn-off variant 1) |  |  | 41.4 |  | 30.1 | 28.7
UAUAUAUAGUAAGGAUAUGUAAUUAUCUUAUAAACAGAAGGUACUGACAUGAGGAUCACCCAUGUUUUAGUGUGGGCAUGUAGA [JMF's solution 39] (Eterna round: R96, puzzle: Exclusion NG 1) |  |  |  | 49.8 |  | 
GGCCUUCCGCGAGCUUUUUACAUGAGGAUCACCCAUGUGGUUUUUAGUCUUAUGCCCGGGCCCGUGUGGGCCCGGGC [-33.7, -54.7, A 12%] (Eterna round: R97, puzzle: Sensor, turn-off variant 1) | 27.6 | 29.2 |  |  |  | 
CUUGUCCGAGGAUAUAUUUUGUGAUACAUGAGGAUCACCCAUGUUAUAAGAUGGAUAUAAAUAGAAGGCGGACGAG [Mat - Exclusion 5 - JL mod - D69] (puzzle: Exclusion 5) |  |  | 44 |  | 35.7 | 47
CAGUACUGAGGAUAUACAUGAGGAUCACCCAUGUGUUCCUGCUAGGAAACUAGCAAAAGUAGAAGGCAGUACUG [salish99_ex3_r3_098x] (Eterna round: R96, puzzle: Exclusion 3) | 516 | 27.5 |  | 26.1 |  | 
GAUCAGUAAGGAUAUACAUGAGGAUCACCCAUGUGGAUGGCCGCGCAUUUCCAUUCAGGUAGAAGGUACUGAGU [Eternabot (L1) Solution 94] (Eterna round: R97, puzzle: Exclusion 3) | 54.3 | 36.8 |  |  |  | 
CUGAUGUCAGGAUAUCAGAAAAGGCACAAGAACGCGCCAAAUGAGAAGGGACAUGAGGAUCACCCAUGUAAAAC [Reena] (puzzle: Exclusion 4) |  |  | 28.2 |  | 87.1 | 27.9
CUAAAUCAUGUAGGAUAUGCGUGGCAAAGCUAUGCAGAAGGACAUGAGGAUCACCCAUGUCAUUCCGUCUGCGAACAGACGGGA [Mat - Exclusion NG 1 - Mod of JL - D50] (Eterna round: R96, puzzle: Exclusion NG 1) | 161 | 20.3 |  | 15.4 |  | 
UAUAAGGUAGGAUAUACGAAUAAAUAGGGUAGAAUAAUAACACAUGAGGAUCACCCAUGUAGAAGGACCAAGAU [Mat - Exclusion 2 - Mod of my Tesla design - D29] (puzzle: Exclusion 2) |  |  | 20.5 |  | 44.5 | 24.8
CUAGGGCGCAUUUAAACGCCCUAACAUGAGGAUCACCCAUGUCAGGAUAUGUAGGCAAAGACCCUACAGAAGGGACAUGUCCUA [Lainceso] (Eterna round: R96, puzzle: Exclusion NG 3) | 264 | 72.7 |  | 57.1 |  | 
AAAUAGCAUGAGGAUAUCGAAUUAUAUAUAGUACGAGAAGGCAUGACAUGAGGAUCACCCAUGUUUUGUUGGGA [EX6 #1] (Eterna round: R97, puzzle: Exclusion 6) | 124 | 57.5 |  |  |  | 
GCGGGAAAAGGAUAUGAGAGGUAAUACAUGAGGAUCACCCAUGUGAUAGACUCUGUGCUUUUAGAAGGUUUAUGUC [Eternabot (L1) Solution 19] (Eterna round: R97, puzzle: Exclusion 5) | 14.3 | 15.3 |  |  |  | 
UAACAGUAAGGAUAUCCAGAUCCAGACAUGAGGAUCACCCAUGUCAAAUACCUUUGACACGGAGAAGGUACGAAAA [EX5 A.26] (Eterna round: R97, puzzle: Exclusion 5) | 53.2 | 51.9 |  |  |  | 
